The results in this text go back to PMC4005638, “Interactions between the non-seed region of siRNA and RNA-binding RLC/RISC proteins, Ago and TRBP, in mammalian cells”.

In one series the target is T1, TRBP (Homo sapiens, UniProt Q15633 1-366).
T1 sequence: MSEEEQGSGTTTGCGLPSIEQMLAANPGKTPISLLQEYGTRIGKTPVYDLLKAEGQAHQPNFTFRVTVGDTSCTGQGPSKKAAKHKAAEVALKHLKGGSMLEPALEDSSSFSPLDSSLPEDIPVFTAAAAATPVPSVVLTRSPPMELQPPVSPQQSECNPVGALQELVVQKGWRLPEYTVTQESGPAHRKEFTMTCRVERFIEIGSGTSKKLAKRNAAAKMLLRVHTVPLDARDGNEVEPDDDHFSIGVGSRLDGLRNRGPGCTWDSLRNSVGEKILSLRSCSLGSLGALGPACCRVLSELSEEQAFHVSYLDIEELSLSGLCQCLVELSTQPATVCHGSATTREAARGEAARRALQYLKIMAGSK
Description: EMSA; virtually no binding; TRBP EMSA: 20 mM Tris pH 7.5, 150 mM NaCl, 2 mM EDTA, 1 mM 2-ME, 1 mM DTT, 50 ng/ml salmon sperm DNA, RNasin, 0.5 nM siRNA, 30 min; PAZ EMSA: 1 pmol/ul PAZ, 5 fmol/ul siRNA, 20 mM Tris-HCl pH 7.5, 100 mM NaCl, 2 mM EDTA, 1 mM DTT, 5% glycerol, 50 ng/ul poly(dA-dT), RNasin, 30 min, room temperature. To be noted: protein: recombinant; tags: N-terminal 6xHis; label: 32P guide strand; 19 bp, 2-nt 3' overhangs. (In general: In EMSA bound probe runs differently from free probe, usually more slowly.)

Series [1] has as its target T2, GST-PAZ (human AGO1 PAZ domain) (Homo sapiens, UniProt Q9UL18 222-376). Description: EMSA; strong; TRBP EMSA: 20 mM Tris pH 7.5, 150 mM NaCl, 2 mM EDTA, 1 mM 2-ME, 1 mM DTT, 50 ng/ml salmon sperm DNA, RNasin, 0.5 nM siRNA, 30 min; PAZ EMSA: 1 pmol/ul PAZ, 5 fmol/ul siRNA, 20 mM Tris-HCl pH 7.5, 100 mM NaCl, 2 mM EDTA, 1 mM DTT, 5% glycerol, 50 ng/ul poly(dA-dT), RNasin, 30 min, room temperature. To be noted: protein: recombinant; tags: N-terminal GST, C-terminal 6xHis; label: 32P guide strand; 19 bp, 2-nt 3' overhangs.

The target in series [2] is T2, GST-PAZ (human AGO1 PAZ domain). The series can be described thus: EMSA; TRBP EMSA: 20 mM Tris pH 7.5, 150 mM NaCl, 2 mM EDTA, 1 mM 2-ME, 1 mM DTT, 50 ng/ml salmon sperm DNA, RNasin, 0.5 nM siRNA, 30 min; PAZ EMSA: 1 pmol/ul PAZ, 5 fmol/ul siRNA, 20 mM Tris-HCl pH 7.5, 100 mM NaCl, 2 mM EDTA, 1 mM DTT, 5% glycerol, 50 ng/ul poly(dA-dT), RNasin, 30 min, room temperature. To be noted: protein: recombinant; tags: N-terminal GST, C-terminal 6xHis; label: 32P guide strand; 19 bp, 2-nt 3' overhangs.

T2 sequence (Q9UL18 222-376): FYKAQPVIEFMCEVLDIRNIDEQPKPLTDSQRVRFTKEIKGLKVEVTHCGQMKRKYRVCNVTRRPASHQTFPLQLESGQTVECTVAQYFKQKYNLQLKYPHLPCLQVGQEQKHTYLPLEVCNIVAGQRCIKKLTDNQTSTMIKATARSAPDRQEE

B1: siLuc2-153 siDNA (dsDNA)
DNA 1: TCGAAGTATTCCGCGTACGTG
DNA 2: CGTACGCGGAATACTTCGATT
modifications: all ribonucleotides replaced by DNA
On to B1, for which, in the series with TRBP, the binding result was “no binding”.

B2: siLuc-36 TCA-RNA (mixed)
DNA 1: TCTTCCAGCGGATAGAAUGGC
DNA 2: CAUUCTAUCCGCTGGAAGATG
modifications: DNA: seed duplex and subdomain B (guide 1-8, 13-14; passenger 6-7, 12-21)
Take B2: the binding result in series [1] is on record as “binds”.

B3: siLuc-36 siDNA (dsDNA)
DNA 1: TCTTCCAGCGGATAGAATGGC
DNA 2: CATTCTATCCGCTGGAAGATG
modifications: all ribonucleotides replaced by DNA
As for B3, the binding result (in series [2]; with TRBP) was “no binding” throughout.

B4: siLuc-36 nonmodified (dsRNA)
RNA 1: UCUUCCAGCGGAUAGAAUGGC
RNA 2: CAUUCUAUCCGCUGGAAGAUG
With B4, the binding result in series [2] is on record as “binds”.
